From publication PMC13200455 come the findings set out here.

For orientation: Kd means the concentration at which binding is half-saturated. The low end stands for higher affinity, the high end for lower affinity.

Data set [1] deals with T1, USE1 (purified, His-USE1) (Homo sapiens, UniProt Q9H832 1-354). The data set is described as follows: equilibrium binding curve, one-site fit.
Data set [2] has as its target T1, USE1 (purified, His-USE1). The data set is described as follows: ELONA titration.
The target in data set [3] is T1, USE1 (purified, His-USE1). The data set is described as follows: fluorescence/quencher displacement.
Data set [4] addresses T1, USE1 (purified, His-USE1). The data set is described as follows: Ni-NTA and streptavidin pull-down.

T1 sequence (Q9H832 whole entry): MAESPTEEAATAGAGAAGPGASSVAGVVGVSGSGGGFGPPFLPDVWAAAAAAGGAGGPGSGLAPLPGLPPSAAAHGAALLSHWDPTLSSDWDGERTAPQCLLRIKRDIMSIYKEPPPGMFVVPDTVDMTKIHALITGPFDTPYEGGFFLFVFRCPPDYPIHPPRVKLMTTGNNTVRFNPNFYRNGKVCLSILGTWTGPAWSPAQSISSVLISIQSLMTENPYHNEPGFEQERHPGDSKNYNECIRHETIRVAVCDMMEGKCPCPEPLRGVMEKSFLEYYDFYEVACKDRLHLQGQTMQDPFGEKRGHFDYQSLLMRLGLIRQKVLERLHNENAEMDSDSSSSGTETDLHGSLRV

B1: Aptamer 3 (ssDNA)
DNA: CACCTAATACGACTCACTATAGCGGATCCGACAGAATGCCATCACCATGTCTAGACCTATTGGCTTTGCGACTGGCTCGAACAAGCTTGC
As for B1, the affinity in data set [1], expressed as Kd, was 90 ± 2.42 nM.

B2: Aptamer 1 (ssDNA)
DNA: CACCTAATACGACTCACTATAGCGGATCCGATGGGTGGGGGGGTGGGTAGGATCCGTTCGGGGTTTGGCATAGGGTCTGGCTCGAACAAGCTTGC
As for B2, the figures for the Kd in data set [1] and in data set [2] were 10 ± 2.76 nM and 7.2 ± 2.91 nM, respectively.

B3: Aptamer 1 fluorescence/quencher probe (mixed)
DNA 1: B2 DNA
DNA 2: GCAAGCTTGTTCGAGCCAG
DNA 3: CCCTATGCCAAAC
On to B3, for which the binding result in data set [3] is given as “binds”.

B4: Aptamer 1e (ssDNA)
DNA: CACCTAACACGATTCACTATAGCTCGGGGTTTGGCA
With B4, the binding result in data set [4] is “binds”.

B5: Aptamer 2 (ssDNA)
DNA: CACCTAATACGACTCACTATAGCGGACAGGGCTGGTGTGGCTGGCGTCCGGCTCGAACAAGGCTGGTGTGGCTGGCGTTCTGGCTCGAACAAGCTTGC
In data set [1], B5 showed a Kd of 32 ± 2.54 nM.
